Assay results reported in patent publication US20100047253A1.

B1: murine IL-13 receptor α2/FC (Fc fusion, mouse, UniProt O88786 22-334, looked up, not shown: a dimerising Fc or GST)
chain: LEIKVNPPQDFEILDPGLLGYLYLQWKPPVVIEKFKGCTLEYELKYRNVDSDSWKTIITRNLIYKDGFDLNKGIEGKIRTHLSEHCTNGSEVQSPWIEASYGISDEGSLETKIQDMKCIYYNWQYLVCSWKPGKTVYSDTNYTMFFWYEGLDHALQCADYLQHDEKNVGCKLSNLDSSDYKDFFICVNGSSKLEPIRSSYTVFQLQNIVKPLPPEFLHISVENSIDIRMKWSTPGGPIPPRCYTYEIVIREDDISWESATDKNDMKLKRRANESEDLCFFVRCKVNIYCADDGIWSEWSEEECWEGYTGPDSK
B2: human IL-13 receptor α2/Fc (Fc fusion, UniProt Q14627 27-343, looked up, not shown: a dimerising Fc or GST)
chain: DTEIKVNPPQDFEIVDPGYLGYLYLQWQPPLSLDHFKECTVEYELKYRNIGSETWKTIITKNLHYKDGFDLNKGIEAKIHTLLPWQCTNGSEVQSSWAETTYWISPQGIPETKVQDMDCVYYNWQYLLCSWKPGIGVLLDTNYNLFYWYEGLDHALQCVDYIKADGQNIGCRFPYLEASDYKDFYICVNGSSENKPIRSSYFTFQLQNIVKPLPPVYLTFTRESSCEIKLKWSIPLGPIPARCFDYEIEIREDDTTLVTATVENETYTLKTTNETRQLCFVVRSKVNIYCSDDGIWSEWSDKQCWEGEDLSKKTLLR
B3: mAb 623 (antibody, V domains shown)
VH: EVQLVESGGGLVKPGGSLRLSCAASGFTFSNAWMSWVRQAPGKGLEWVGRIRSEIDGGTTNYAAPVKGRFTISRDDSKNTLYLQMNSLKTEDTAVYYCATDQVGAYYGDYYGMDVWGQGTTVTVSS
VL: SYELTQPPSVSVSPGQTARITCSGDALPEKYAYWYQQKSGQAPVLVIYEDSKRPSGIPERFSGSSSGTMATLTISGAQVEDEADYYCHSTDSSGNHGVFGGGTKLTVLG
B4: mAb 731 (antibody, V domains shown)
VH: EVQLLESGGGLVQPGGSLRLSCAASGFTFSSYAMSWVRQAPGKGLEWVSAFSGSGGSTYYADSVKGRFTISRDNSKNTLYLQMNSLRAEDTAVYYCVQDGLGPYFYNYGMDVWGQGTTVTVSS
VL: SYELTQPPSVSVSPGQTASITCSGDKLGDKYACWFQQKPGQSPVLVIYHDSKRPSGIPERFSGSNSGDTATLTISGTQAMDEADYYCQAWDSSTYVFGTGTKVTVLG

Tests used:
[1] = biological target: human IL-13 (source not stated for the assay) (human) (UniProt P35225); assay: cell-based or functional assay
[2] = biological target: IL-13 variant IL-13Q110R (human) (UniProt P35225); assay: cell-based or functional assay
[3] = biological target: IL-13 variant IL-13Q110R (human) (UniProt P35225); assay: SPR (Biacore 2000), mAb captured on goat anti-human surface, IL-13 variant (Peprotech) 23.6-0.185 nM, 1:1 model

human IL-13 (source not stated for the assay) (human), sequence (P35225 35-146 limits assumed): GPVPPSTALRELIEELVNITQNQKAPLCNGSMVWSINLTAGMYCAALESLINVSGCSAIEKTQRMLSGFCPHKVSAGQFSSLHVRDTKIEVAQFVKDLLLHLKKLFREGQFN
IL-13 variant IL-13Q110R (human), sequence (P35225 33-146, stated change not applied): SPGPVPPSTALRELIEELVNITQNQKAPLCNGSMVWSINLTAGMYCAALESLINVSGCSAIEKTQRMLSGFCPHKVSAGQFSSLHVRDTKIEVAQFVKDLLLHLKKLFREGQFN

Binder	IC50, IL-13 induced eotaxin release, Average [1] [nM]	IC50, IL-13 induced eotaxin release, n = 1 [1] [nM]	IC50, IL-13 induced eotaxin release, n = 2 [1] [nM]	IC50, IL-13 induced eotaxin release, n = 3 [1] [nM]	EC50, HDLM-2 proliferation assay (3H-thymidine) [1] [nM]	EC50, L-1236 proliferation assay (3H-thymidine) [1] [nM]	IC50, IL-13-induced CD23 expression on whole blood B cells (FACS) [1] [nM]	IC50, eotaxin production by HDFa cells, 300 pM IL-13Q110R [2] [pM]	IC50, eotaxin production by HDFa cells, 600 pM IL-13Q130R [2] [pM]	Kd [3] [nM]	koff [3] [s⁻¹]	kon [3] [M⁻¹ s⁻¹]
B1	0.032	0.029	0.039	0.029	–	–	–	–	–	–	–	–
B2	0.131	0.128	0.147	0.119	0.6	0.059	4	–	–	–	–	–
B3	–	–	–	–	–	–	–	106	277	0.0388	0.000218	5.62e+06
B4	–	–	–	–	–	–	–	54	140	0.0098	5.02e-05	5.11e+06
